Among the data in patent publication US20250382384A1 are Kd and EC50 (read off the curve) values, retold here.

The term Kd denotes the free concentration of one partner at which half of the binding sites on the other are occupied at equilibrium, for simple one-to-one binding. A high value points to weaker binding. One may read the EC50 (read off the curve) as the concentration at which the effect is half-maximal. A higher EC50 (read off the curve) goes with weaker potency.

Assay [1] addresses cynomolgus MUC1 SEA domain protein (cynomolgus). Put plainly: SPR, antibody captured, cynoMUC1 SEA analyte. (SPR reads the build-up and loss of mass on a sensor chip optically.)
The target in assay [2] is full-length cynomolgus MUC1 on stably transfected cells (cynomolgus). Nature of the assay: FACS (iQue3) on HEK293-cynoMUC1 cells.
Sequence of full-length cynomolgus MUC1 on stably transfected cells (cynomolgus) (chain, as listed by the source limits assumed, form in doubt): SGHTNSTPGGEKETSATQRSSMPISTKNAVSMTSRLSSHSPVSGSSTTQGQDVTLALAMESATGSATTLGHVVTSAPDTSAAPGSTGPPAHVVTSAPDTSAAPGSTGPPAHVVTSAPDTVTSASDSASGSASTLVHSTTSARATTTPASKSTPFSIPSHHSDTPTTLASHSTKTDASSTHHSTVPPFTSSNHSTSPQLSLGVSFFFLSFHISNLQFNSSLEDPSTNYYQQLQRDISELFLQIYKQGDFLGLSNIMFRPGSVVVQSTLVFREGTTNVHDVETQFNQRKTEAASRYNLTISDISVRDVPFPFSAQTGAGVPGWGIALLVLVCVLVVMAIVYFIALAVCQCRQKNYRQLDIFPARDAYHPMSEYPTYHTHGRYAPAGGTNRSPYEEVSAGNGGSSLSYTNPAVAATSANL

B1: huBG138P-Hz2 (antibody, V domains shown)
VH: QVQLVQSGAEVKKPGASVKVSCKASGYTFTTYTMHWVRQAPGQRLEWMGYINPGSDYTHYNQKFKDRVTITADTSASTAYMELSSLRSEDTAVYYCARQGNYAAYYFDYWGQGTLVTVSS
VL: DIQMTQSPSSLSASVGDRVTITCRASGNIHNFLVWYQQKPGKSPKLLIYNAKTLTSGVPSRFSGSGSGTQYTLTISSLQPEDVATYYCQNFWNVPFTFGQGTKLEIK
In turn, B1 showed a Kd in assay [1] of 6.67 nM. The molecule also registered an EC50 (read off the curve) in assay [2] of 3 nM.
